The values below come from patent publication CN112430265A (INST FOR VIRAL DISEASE CONTROL AND PREVENTION CHINESE …, dated 2021).

In the experiment the target is 新型冠状病毒S1蛋白 (纯化) (SARS-CoV-2, UniProt P0DTC2 14-685).

B1: 人源抗新冠病毒中和性抗体nCoV-61 全抗体IgG (antibody, V domains shown)
VH: EVQLVESGGGLVQPGGSLRLSCEASEIIVNRNYMNWVRQAPGKGLEWVSIIYPGGSTFYADSVKGRFTISRDNSKNTMYLQMNSLRAEDTAVYYCARSYGDFYVDFWGQGTLVTVSS
VL: QSVLTQPPSVSAAPGQKVTISCSGSSSNIGNNYVSWYQQLPGTAPKLLIYDNNKRPSGIPDRFSGSKSGTSATLGITGLQTGDEADYYCGTWDSSLSAWVFGGGTKLTVLG
Broadly, the Kd is the concentration at which binding is half-saturated. A low value points to a tighter complex. B1: binding was characterised by a dissociation constant (Kd) of 3.33 pM.
